Assay results from article PMC8357123, “Modeling of DNA binding to the condensin hinge domain using molecular dynamics simulations guided by atomic force microscopy” (PLoS Computational Biology, 2021).

Molecular target: T1, Smc4 (S. cerevisiae (budding yeast), UniProt Q12267 1-1418)
T1 construct: Smc4, subunit of the budding yeast condensin complex; The holo-complex was purified over HisTrap and Strep-Tactin; also called condensin subunit Smc4
T1 sequence (looked up): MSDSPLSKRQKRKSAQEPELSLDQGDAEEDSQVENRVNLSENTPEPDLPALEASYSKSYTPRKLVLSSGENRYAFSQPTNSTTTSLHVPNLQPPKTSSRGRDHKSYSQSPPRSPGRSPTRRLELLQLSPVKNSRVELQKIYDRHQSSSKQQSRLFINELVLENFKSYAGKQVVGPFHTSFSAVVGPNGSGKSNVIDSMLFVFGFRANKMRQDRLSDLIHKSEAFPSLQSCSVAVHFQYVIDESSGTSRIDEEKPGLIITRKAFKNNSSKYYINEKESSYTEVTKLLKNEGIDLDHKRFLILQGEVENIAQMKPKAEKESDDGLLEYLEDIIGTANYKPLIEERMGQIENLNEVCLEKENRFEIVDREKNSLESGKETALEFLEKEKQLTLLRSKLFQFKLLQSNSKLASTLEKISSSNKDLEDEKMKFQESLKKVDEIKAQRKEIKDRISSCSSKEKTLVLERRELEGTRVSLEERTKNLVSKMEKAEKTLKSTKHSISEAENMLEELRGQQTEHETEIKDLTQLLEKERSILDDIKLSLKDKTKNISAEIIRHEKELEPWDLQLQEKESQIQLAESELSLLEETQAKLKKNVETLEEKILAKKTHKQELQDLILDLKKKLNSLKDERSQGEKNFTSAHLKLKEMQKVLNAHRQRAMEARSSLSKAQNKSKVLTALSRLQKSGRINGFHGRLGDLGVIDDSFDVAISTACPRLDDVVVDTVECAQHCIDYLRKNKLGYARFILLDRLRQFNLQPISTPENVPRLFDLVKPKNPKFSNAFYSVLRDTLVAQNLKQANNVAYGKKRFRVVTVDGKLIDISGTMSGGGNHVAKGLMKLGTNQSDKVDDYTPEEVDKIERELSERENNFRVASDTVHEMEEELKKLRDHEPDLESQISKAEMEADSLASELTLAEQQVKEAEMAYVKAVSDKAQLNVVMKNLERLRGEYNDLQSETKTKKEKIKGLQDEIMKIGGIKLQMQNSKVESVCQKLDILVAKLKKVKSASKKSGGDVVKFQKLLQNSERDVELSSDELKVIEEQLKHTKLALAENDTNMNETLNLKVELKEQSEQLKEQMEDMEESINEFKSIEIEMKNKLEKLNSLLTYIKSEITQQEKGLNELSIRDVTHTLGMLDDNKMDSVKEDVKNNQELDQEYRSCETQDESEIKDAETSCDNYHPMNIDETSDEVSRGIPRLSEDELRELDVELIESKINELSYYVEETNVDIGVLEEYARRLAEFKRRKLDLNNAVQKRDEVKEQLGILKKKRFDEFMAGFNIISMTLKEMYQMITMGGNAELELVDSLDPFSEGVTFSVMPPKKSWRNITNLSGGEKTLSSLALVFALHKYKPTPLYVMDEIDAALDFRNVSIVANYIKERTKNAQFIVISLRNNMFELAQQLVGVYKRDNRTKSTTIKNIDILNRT
Assay: high-speed atomic force microscopy (HS-AFM); 1 nM purified condensin holo-complex on bare mica in 40 mM Tris-HCl pH7.5, 125 mM KCl, 10 mM MgCl2, 1 mM DTT, 4 mM ATP; room temperature; 150 ms/frame; 36 molecules observed
Conditions: both partners purified

binding result: binds
B1: Smc2 (natural protein, S. cerevisiae (budding yeast), UniProt P38989 1-1170, looked up)
chain: MKVEELIIDGFKSYATRTVITDWDPQFNAITGLNGSGKSNILDAICFVLGIASMSTVRASSLQDLIYKRGQAGVTKASVTIVFDNTDKSNSPIGFTNSPQISVTRQVVLGGTSKYLINGHRAPQQSVLQLFQSVQLNINNPNFLIMQGKITKVLNMKPSEILSLIEEAAGTKMFEDRREKAERTMSKKETKLQENRTLLTEEIEPKLEKLRNEKRMFLEFQSTQTDLEKTERIVVSYEYYNIKHKHTSIRETLENGETRMKMLNEFVKKTSEEIDSLNEDVEEIKLQKEKELHKEGTISKLENKENGLLNEISRLKTSLSIKVENLNDTTEKSKALESEIASSSAKLIEKKSAYANTEKDYKMVQEQLSKQRDLYKRKEELVSTLTTGISSTGAADGGYNAQLAKAKTELNEVSLAIKKSSMKMELLKKELLTIEPKLKEATKDNELNVKHVKQCQETCDKLRARLVEYGFDPSRIKDLKQREDKLKSHYYQTCKNSEYLKRRVTNLEFNYTKPYPNFEASFVHGVVGQLFQIDNDNIRYATALQTCAGGRLFNVVVQDSQTATQLLERGRLRKRVTIIPLDKIYTRPISSQVLDLAKKIAPGKVELAINLIRFDESITKAMEFIFGNSLICEDPETAKKITFHPKIRARSITLQGDVYDPEGTLSGGSRNTSESLLVDIQKYNQIQKQIETIQADLNHVTEELQTQYATSQKTKTIQSDLNLSLHKLDLAKRNLDANPSSQIIARNEEILRDIGECENEIKTKQMSLKKCQEEVSTIEKDMKEYDSDKGSKLNELKKELKLLAKELEEQESESERKYDLFQNLELETEQLSSELDSNKTLLHNHLKSIESLKLENSDLEGKIRGVEDDLVTVQTELNEEKKRLMDIDDELNELETLIKKKQDEKKSSELELQKLVHDLNKYKSNTNNMEKIIEDLRQKHEFLEDFDLVRNIVKQNEGIDLDTYRERSKQLNEKFQELRKKVNPNIMNMIENVEKKEAALKTMIKTIEKDKMKIQETISKLNEYKRETLVKTWEKVTLDFGNIFADLLPNSFAKLVPCEGKDVTQGLEVKVKLGNIWKESLIELSGGQRSLIALSLIMALLQFRPAPMYILDEVDAALDLSHTQNIGHLIKTRFKGSQFIVVSLKEGMFANANRVFRTRFQDGTSVVSIM
notes: Smc2, subunit of the budding yeast condensin complex; The holo-complex was purified over HisTrap and Strep-Tactin; also called condensin subunit Smc2
